Assay results as given in patent US20210253725A1 (BIONTECH, published 2021).
Changes are numbered by the printed parent chain. Names and notes keep the numbering of the source.

B1: P018.S.07.A.H06 (antibody, V domains shown)
VH: QSLEESGGDLVQPGASLTLTCKASGIDLSSYWMCWVRQTPGKGLEWIGCIATYSSVTYYANWAKGRFTISKPSSTTVTLQMTSLTAADTATYFCARDPYSFNGSLFTLWGPGTLVTVSS
VL: ALVMTQTASPVSAAVGGTVTIDCQASQNIGTYLAWYQQKPGQPPKLLIYTASSLASGVPSRFKGSGSGTQFTLTISDLESDDAATYYCAGYKNYNNDDNGFGGGTEVVVK
notes: V regions on human Ig constant parts; also called AB27_134
B2: P018.S.05.A.B02 (antibody, V domains shown)
VH: QSLEESGGRLVTPGTPLTLTCKVSGFSLSSYDMIWVRQAPGKGLEWIGIVSTGGSAGYASWAKGRFTITKTSTTVDLKITSPTTEDTATYFCARIISGGRDLWGPGTLVTVSS
VL: DIVMTQTPASVEAAVGGTVTIKCQASESISSRLAWYQQKPGQPPKLLIYSASTLAFGVSSRFKGSGSGTQFTLTISDLESADAATYYCQSYYYSSTASYASNNAFGGGTEVVVK
notes: V regions on human Ig constant parts; also called AB27_83
B3: P018.S.01.A.H06 (antibody, V domains shown)
VH: QEQLKESGGRLVKPDETLTITCTASGFSLSRYDMSWVRQAPGKGLEWIGSIWSDGDTDYANWAKGRFTISKTSTTVDLKITSPTTEDTATYFCARGYTAWSLWGPGTLVTVSS
VL: ALVMTQTPSPVSAAVGGTVTISCQSSESVVGNNALSWFQQKPGQPPKLLNYQASTLASGVSSRFSGSGSGTQFTLTISGVQSDDAATYYCQGTYYSSGWYFAFGGGTEVVVK
notes: V regions on human Ig constant parts; also called AB27_26
B4: P018.S.05.A.G04 (antibody, V domains shown)
VH: B3 VH with T17S, I20L, T75M, A94G, S101N
VL: B3 VL with A14T, V19L, N50I
notes: V regions on human Ig constant parts; also called AB27_93
B5: P018.S.09.A.D04 (antibody, V domains shown)
VH: QSVEESGGRLVTPGTPLTLTCTVSGFSLSSNAISWVRQAPGKGLEWIAIITHSDNTFYASWAKGRFTISKASTTVDLKVTSPTTEDTATYFCARDGYVSSSGTYMGGYFDLWGQGTLVTVSS
VL: DPVLTQTPSPVSAAVGGTVTINCQASQIIYNDKNLAWYQQKPGQPPKLLIYYASTLASGVSSRFKGSASGTQFTFTISGVQSDDAATYYCQGEFSCSSADCIAFGGGTEVVVK
notes: V regions on human Ig constant parts; also called AB27_151
B6: P018.S.04.A.D05 (antibody, V domains shown)
VH: QSLEESGGRLVTPGTPLTLTCTASGIDLSRHAINWVRQAPGKGLEYIGTIYASGSTFYASGAKGRFTISKTSTTVDLGITSLTTEDTATYFCARGITIEWFDLWGQGTLVTVSS
VL: AAVLTQTPSSVSAAVGGTVTINCQSSPSVYSNYLSWFQQKPGQPPKLLIYGAATLASGVPSRFRGSGSGTEFTLTITDVQSDDAATYYCLGGYSDTADTIFGGGTEVVVK
notes: V regions on human Ig constant parts; also called AB27_73
B7: P018.S.02.A.E06 (antibody, V domains shown)
VH: QSLEESGGRLVTPGTPLTLTCTASGFSLSNYSMNWVRQAPGKGLEWIGIINMYGSTYYATWAKGRFTISKTSTTVDLKMTSLTTEDTATYFCARDAGGSTVPWYFDLWGPGTLVTVSS
VL: AYDMTQTPASVSEPVGGTVTIKCQASESISDYLAWYQQKPGQRPKLLIYDASKLASGVPSRFSGSGSGTEFTLTISGVGSADAATYYCQQGYADSNVDNVFGGGTEVVVK
notes: V regions on human Ig constant parts; also called AB27_34
B8: P018.S.08.A.G02 (antibody, V domains shown)
VH: QSVEESGGRLVTPGTPLTLTCTVSGFSLSTYAMSWVRQAPGKGLEWIGMNTRSGIIYYASWAKGRFTISKTSTTVHLKITSPTTEDTATYFCARDLYADVSGYYLGLWGPGTLVTVSS
VL: AQVLTQTPSSVSAAVGGTVTINCQASQSLYNNKNLAWYQQKPGQPPKLLIYYASTLASGVSSRFKGSGSGTQFTLTISDLESDDAATYYCQGEFICSSADCVVFGGGTAVVVK
notes: V regions on human Ig constant parts; also called AB27_141
B9: P018.S.07.A.D04 (antibody, V domains shown)
VH: QSLEESGGRLVTPGGSLTLTCTVSGIDLSSYAMGWVRQAPGKGLEWIGIISSSGSTYYASWANGRFTISKTSTTVDLKVTSPTTEDTATYFCARDGDSGRGYYFHFWGQGTLVTVSS
VL: AFELTQTPASVSAAVGGTVTIKCQASEDIYSLLAWYQQKPGQPPKLLIYDASDLASGVPSRFSGSGSGTEYTLTISDLESADAAIYYCQQGYTTVTIVDNVFGGGTEVVVK
notes: V regions on human Ig constant parts; also called AB27_123
B10: P018.S.03.A.F04 (antibody, V domains shown)
VH: QSVEESGGRLVTPGTPLTLTCTVSGFSLSSYAMGWVRQAPGKGLQWIGILYRNDAASYANWAKGRFTISKTSTTVDLTMPSLTTEDTATYFCVRGYVNDGYYNLWGQGTLVTVSS
VL: AYDMTQTPASVEVAVGGTVTIKCQASESIGYRLAWYQQKPGQPPKLLIFDASDLASGVPSRFKGSGSGKHFTLTISGVQSADAATYYCQQDYSYSITDNCFGGGTEVVVS
notes: V regions on human Ig constant parts; also called AB27_55
B11: P018.S.01.A.E03 (antibody, V domains shown)
VH: B10 VH
VL: B10 VL with P40S, T97I, C100S, S110K
notes: V regions on human Ig constant parts; also called AB27_15
B12: P018.S.07.A.G02 (antibody, V domains shown)
VH: QSVEESGGRLVTPGTPLTLTCTVSGFSLSSYDMSWVRQAPGKGLEWIGWITTDGGTDYASWAKGRFTVSKASTTVDLKITSPTTEDTATYFCARGYASFNLWGQGTLVTVSS
VL: AQVLTQTPSSVSAAVGGTVTINCQSSQSVLSNSYLAWYQQKPGQPPKLLIYAASSLASGVPSRFKGSGSGTQFTLTISDLESDDAATYYCQGTDYSGGWYVAFGGGTEVVVK
notes: V regions on human Ig constant parts; also called AB27_129
B13: P018.S.03.A.C05 (antibody, V domains shown)
VH: QSLEESGGGLVQPGGTLTLTCKASGIDFSSSFYMCWVRQAPGKGLERIACTYNRDGSTYYASWAKGRFTISKTSSTTVTLQMASLTVADTATYFCARDDGYPGSGYVFNLWGPGTLVTVSS
VL: DVVMTQTPASVEAAVGGTVTIKCQASQSVSSYLSWYQQKPGQRPKLLIYGASNLESGVPSRFKGSGSGTEFTLTISGVQSDDAATYYCQGGYYSSGADNNSFGGGTELVVK
notes: V regions on human Ig constant parts; also called AB27_46
B14: P018.S.04.A.A01 (antibody, V domains shown)
VH: QEQLVESGGGLVQPEGSLTLTCTESGFSFSSNAVCWVRQAPGKGLEWIACIYVDSIGSTWYASWAKGRFTISKTSSTTVTLQMTSLTAADTATYFCARGDNIAYFMLWGPGTLVTVSS
VL: DIVMTQTPASVEAAVGGTVTIRCQASESITSFLSWYQQKPGQPPKLLIYKISTLASGVPSRFKASGSGTEFTLTISDLESADAAAYYCQGYYYYSNVVYASNGFGGGTEVVVK
notes: V regions on human Ig constant parts; also called AB27_64
B15: P018.S.09.A.H03 (antibody, V domains shown)
VH: QSLEESGGRLVTPDESLTLTCTVSGFSLSSNAMIWVRQAPGKGLEWIGIIDTGGSAYYASWAKGRFTISKTSTTVDLKITSPTTEDTATYFCARDRYTDSSGYNLWGQGTLVTVSS
VL: DIVMTQTPASVEAAVGGTVTIKCQASQSIGASLAWYKQKPGQPPKLLIYSASWLASGVPSRFKGSGSGTEFTLTISDLASADAATYYCQSYYYRSSSGYGYAFGGGTEVVVK
notes: V regions on human Ig constant parts; also called AB27_160
B16: P018.S.07.A.D03 (antibody, V domains shown)
VH: QEQLKESGGGLVTPGGTLTLTCTVSGFSLSGHDMGWVRQAPGKGLEWIGIIGSNSKTYYTNWAKGRFTISKTSTTVGLRITSPTTEDTATYFCTVVGPGVGGFYFDLWGQGTLVTVSS
VL: DVVMTQTPASVSDPVGGTVTIRCQASQSIGSDLAWYQQKPGQPPKLLIYAASTLASGVPSRFSGSGSGTEYTLTISDLESADAATYYCQCTYVGSTYLGAFGGGTEVVVK
notes: V regions on human Ig constant parts; also called AB27_122
B17: P018.S.08.A.E02 (antibody, V domains shown)
VH: QSLEESGGRLVTPGGSLTLTCTVSGIDLSSYDMNWVRQAPGEGLEWIGAISTGGDTHYTNWAKGRFTISKTSTTVDLKMTSLTAADTATYFCARGYYTLALWGQGTLVTVSS
VL: DPVLTQTPASVEAAVGGTVTIKCQASQSINSWLSWYQQKPGQPPKRLIYDTSTLESGVPSRFSGGESGTEFTLTISDLESDDAATYYCQSYYYITSSYAITFGGGTEVVVK
notes: V regions on human Ig constant parts; also called AB27_139

molecular target: T1, CD27 expressed on the cell surface (HT1080_CD27 cells) (human, UniProt P26842 20-260); test: cellular binding assay, HT1080_CD27 cells
T1 construct: whole, on cells; also called K562_CD27
T1 sequence (looked up): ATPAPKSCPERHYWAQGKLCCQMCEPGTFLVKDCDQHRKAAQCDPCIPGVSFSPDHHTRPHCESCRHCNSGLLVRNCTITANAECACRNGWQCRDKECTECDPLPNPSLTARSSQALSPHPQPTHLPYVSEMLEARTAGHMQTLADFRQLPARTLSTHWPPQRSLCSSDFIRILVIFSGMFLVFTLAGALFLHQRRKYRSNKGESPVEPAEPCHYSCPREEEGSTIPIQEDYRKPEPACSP
Further: test concentration or dose not given here.

In order of rising “Cellular binding assay [RFU]” value:
1. B2  259 RFU
2. B15  268 RFU
3. B6  292 RFU
4. B14  297 RFU
5. B10  299 RFU
6. B13  303 RFU
7. B8  315 RFU
8. B1  327 RFU
9. B7  331 RFU
10. B11  335 RFU
11. B4  375 RFU
12. B5  376 RFU
13. B17  387 RFU
14. B9  393 RFU
15. B16  409 RFU
16. B3  422 RFU
17. B12  453 RFU

molecular target: T1, CD27 expressed on the cell surface …; test: cell-based or functional assay

In order of falling “IL-8, cross-linked by F(ab')2 fragment [abs. corr.]” value:
1. B8  2.48 abs. corr.
2. B12  2.41 abs. corr.
3. B3  2.18 abs. corr.
4. B15  2.13 abs. corr.
5. B2  1.95 abs. corr.
6. B9  1.81 abs. corr.
7. B16  1.68 abs. corr.
8. B5  1.66 abs. corr.
9. B13  1.63 abs. corr.
10. B10  1.59 abs. corr.
11. B17  1.55 abs. corr.
12. B14  1.47 abs. corr.
13. B7  1.29 abs. corr.
14. B1  1.23 abs. corr.
15. B11  1.22 abs. corr.
16. B4  1.19 abs. corr.
17. B6  1.08 abs. corr.

In order of falling “IL-8 [abs. corr.]” value:
1. B12  0.725 abs. corr.
2. B5  0.688 abs. corr.
3. B2  0.633 abs. corr.
4. B8  0.598 abs. corr.
5. B15  0.578 abs. corr.
6. B16  0.569 abs. corr.
7. B13  0.544 abs. corr.
8. B9  0.449 abs. corr.
9. B11  0.436 abs. corr.
10. B1  0.422 abs. corr.
11. B4  0.393 abs. corr.
12. B17  0.315 abs. corr.
13. B7  0.308 abs. corr.
14. B3  0.27 abs. corr.
15. B10  0.253 abs. corr.
16. B6  0.241 abs. corr.
17. B14  0.176 abs. corr.

molecular target: T2, CD27 protein (His-tagged, Sino Biological Inc. 10039-H08B1) (human, UniProt P26842 20-192); test: ELISA on coated His-tagged CD27
T2 construct: bought; coated onto ELISA plates; also called human CD27; recombinant protein; not shown: His tag
T2 sequence (looked up): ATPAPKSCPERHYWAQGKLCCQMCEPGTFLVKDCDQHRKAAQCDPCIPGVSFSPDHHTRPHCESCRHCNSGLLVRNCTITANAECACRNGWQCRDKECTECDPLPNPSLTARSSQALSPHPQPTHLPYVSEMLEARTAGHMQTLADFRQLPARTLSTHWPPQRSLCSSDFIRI

In order of falling “ELISA [abs. corr.]” value:
1. B15  3.54 abs. corr.
2. B3  3.44 abs. corr.
3. B1  3.35 abs. corr.
4. B4  3.35 abs. corr.
5. B5  3.35 abs. corr.
6. B16  3.34 abs. corr.
7. B6  3.33 abs. corr.
8. B9  3.33 abs. corr.
9. B12  3.33 abs. corr.
10. B17  3.33 abs. corr.
11. B2  3.32 abs. corr.
12. B7  3.32 abs. corr.
13. B8  3.32 abs. corr.
14. B13  3.32 abs. corr.
15. B14  3.32 abs. corr.
16. B10  3.31 abs. corr.
17. B11  3.3 abs. corr.
